# Reference: article PMC11257990, “Noncanonical assembly, neddylation and chimeric cullin–RING/RBR ubiquitylation by the 1.8 MDa CUL9 E3 ligase complex” (Nature Structural & Molecular Biology, 2024)
# B1: CUL9^ARIH-RBR (domain or fragment, human, UniProt Q8IWT3 1979-2517, looked up)
# chain: SPEAVATLASLQLPAGRTMSPQEVEGLMKQTVRQVQETLNLEPDVAQHLLAHSHWGAEQLLQSYSEDPEPLLLAAGLCVHQAQAVPVRPDHCPVCVSPLGCDDDLPSLCCMHYCCKSCWNEYLTTRIEQNLVLNCTCPIADCPAQPTGAFIRAIVSSPEVISKYEKALLRGYVESCSNLTWCTNPQGCDRILCRQGLGCGTTCSKCGWASCFNCSFPEAHYPASCGHMSQWVDDGGYYDGMSVEAQSKHLAKLISKRCPSCQAPIEKNEGCLHMTCAKCNHGFCWRCLKSWKPNHKDYYNCSAMVSKAARQEKRFQDYNERCTFHHQAREFAVNLRNRVSAIHEVPPPRSFTFLNDACQGLEQARKVLAYACVYSFYSQDAEYMDVVEQQTENLELHTNALQILLEETLLRCRDLASSLRLLRADCLSTGMELLRRIQERLLAILQHSAQDFRVGLQSPSVEAWEAKGPNMPGSQPQASSGPEAEEEEEDDEDDVPEWQQDEFDEELDNDSFSYDESENLDQETFFFGDEEEDEDEAYD
# notes: CUL9, human, ARIH-RBR element, residues 1979-2517; also called CUL9 RBR element; source: HEK293S, baculovirus infection, without RBX1, purified; not shown: TwinStrep, N-terminal, cleaved
# Molecular target: T1, UBE2L3 (human, UniProt P68036 1-154)
# T1 construct: UBE2L3, human; source: E. coli Rosetta 2 (DE3), purified (glutathione sepharose, TEV cleavage, ion exchange, SEC)
# Experiment: ITC; E2 (300–500 μM) in the syringe, CUL9^ARIH-RBR (25 μM) in the cell; 25 °C; 25 mM HEPES pH 7.5, 150 mM NaCl, 0.5 mM TCEP; 19 × 2 μl injections; single-site model
# Details: both partners purified
# T1 sequence (P68036 whole entry): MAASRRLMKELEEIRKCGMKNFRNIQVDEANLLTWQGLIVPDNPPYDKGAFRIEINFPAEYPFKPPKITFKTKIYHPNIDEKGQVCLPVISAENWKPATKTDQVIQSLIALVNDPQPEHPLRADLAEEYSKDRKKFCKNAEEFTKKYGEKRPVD
binder,measurement,value
B1,binding result,binds
